B1: C-terminally biotin-tagged VHH_(ISG15-B) (VHH)
VHH: QVQLVETGGGLVEPGGSLRLSCTVSGINFSSQFMAWFRQGPGKQREWVAIDAGEENVGYLDLVEGRFTISRDTARNTLYLQMNSLKPEDTAVYYCNIFPVLPDSRWGQGTQVTVSS
modifications: biotin at the C-terminus (sortase reaction with GGG-Biotin replaces the C-terminal HA tag)
B2: C-terminally biotin-tagged VHH_(ISG15-A) (VHH)
VHH: QLQLVETGGGLVQAGGSLRLSCAASGRTFAGLSVKWFRQPPGAEREWVAHITSTGSSTHYADSVKGRFTISRDYDRNMVYLQMSSLKPEDTAVYYCHASTLWPEKHQDYWGQGIQVTVSS
modifications: biotin at the C-terminus (sortase reaction with GGG-Biotin replaces the C-terminal HA tag)

Assays:
human ISG15 (C78S) [1] = biological target: T1, human ISG15 (C78S) (human, UniProt P05161 1-157, C78S); experiment: BLI
human ISG15 (C78S) [2] = biological target: T1, human ISG15 (C78S); experiment: BLI; remark: listed apart in the source

T1 sequence (P05161 1-157 C78S): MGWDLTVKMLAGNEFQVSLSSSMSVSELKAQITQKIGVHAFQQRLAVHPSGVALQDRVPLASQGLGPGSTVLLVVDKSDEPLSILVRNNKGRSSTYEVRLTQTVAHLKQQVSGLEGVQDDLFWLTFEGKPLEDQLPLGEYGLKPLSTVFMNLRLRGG

Binder	Kd (human ISG15 (C78S) [1]) [nM]	koff (human ISG15 (C78S) [2]) [s⁻¹]
B1	2.88	0.00388
B2	101	0.012
